Changes are numbered by the printed parent chain. In names and notes the source's numbering stands.
Tests used:
[1] = biological target: FcγRIIIa extracellular domain with C-terminal His tag (human, UniProt P08637 17-208); experiment: SPR (Biacore), relative binding activity; GpH7-A5/GpH7-B3/GpL16-k0 = 100
Target sequence in this assay (P08637 17-208): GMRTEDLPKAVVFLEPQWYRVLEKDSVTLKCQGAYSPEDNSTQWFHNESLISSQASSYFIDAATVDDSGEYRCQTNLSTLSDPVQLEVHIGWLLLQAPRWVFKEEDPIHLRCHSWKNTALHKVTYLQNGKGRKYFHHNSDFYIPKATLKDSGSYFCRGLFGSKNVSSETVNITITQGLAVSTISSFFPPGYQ

FcγRIIIa [2] = biological target: T1, FcγRIIIa (human, UniProt P08637 17-208); experiment: ratio of SPR KDs: KD of GpH7-G1d/GpL16-k0 divided by KD of this antibody
T1 construct: extracellular domain; also called FcgRIIIa; CD16A; not shown: His tag attached to the C terminus
T1 sequence (P08637 17-208): as above
Procedure, shortened: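 Biacore SPR at 25 °C in HBS-EP+; antibodies captured on antigen peptide-immobilized CM5 or SA chips, FcγRIIIa flowed as analyte, regeneration with 10 mM glycine-HCl pH 1.5. KD from ka and kd by global 1:1 Langmuir fitting; values are the reference antibody's KD divided by this antibody's KD.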

FcγRIIIa [3] = biological target: T1, FcγRIIIa; experiment: ratio of SPR KDs: KD of GpH7-A5/GpH7-B3/GpL16-k0 divided by KD of this antibody
Method: The prepared antibodies were compared for the FcγRIIIa-binding activity using, as an indicator, KD for FcγRIIIa that was determined according to the method described in Reference Example 2.
(§1) Analysis of interaction between objective antibody and the FcγR was carried out using Biacore T100 (GE Healthcare). HBS-EP+ (GE Healthcare) was used as the running buffer, and the measurement temperature was set to 25° C. Chips produced by immobilizing the antigen peptide by the amine coupling method to a Series S Sencor Chip CM5 (GE Healthcare), or alternatively, chips produced by allowing preliminarily biotinylated antigen peptides to interact with and immobilize onto a Series S Sensor Chip SA (certified) (GE Healthcare) were used. Antibodies of interest were captured onto an antigen peptide-immobilized chip, and allowed to interact to each FcγR diluted with running buffer. To regenerate and repeatedly use the chip, the antibodies captured on the chip were washed off by reacting 10 mM glycine-HCl, pH 1.5.
(§2) Specifically, to calculate association rate constant ka (L/mol/s) and dissociation rate constant kd (1/s), sensorgrams obtained by measurement were processed for global fitting by Biacore Evaluation Software using 1:1 Langmuir binding model and dissociation constant KD (mol/1) was calculated from the resulting values.

FcγRIIIa [4] = biological target: T1, FcγRIIIa; experiment: ratio of SPR KDs: KD of GpH7-A5/GpH7-B78/GpL16-k0 divided by KD of this antibody
Method: To assess this hypothesis, GpH7-A53 (SEQ ID NO: 42) resulting from the introduction of S239D into GpH7-A5 was constructed, and, this is combined with GpH7-B78 introduced with S239D, A330L, and I332E, and the expression and preparation were performed according to the method described in Reference Example 1. The effect of the combination of S239D and S239D, A330L, and I332E was assessed by comparing the FcγRIIIa binding between the heterodimerized and homodimerized antibodies with S239D, A330L, and I332E according to the method described in Reference Example 2 (Table 14).
as §1, §2

FcγRIIIa [5] = biological target: T1, FcγRIIIa; experiment: ratio of SPR KDs: KD of GpH7-TA22/GpH7-B78/GpL16-k0 divided by KD of this antibody
Source text: Then, GpH7-TA54 (SEQ ID NO: 46) resulting from the introduction of Y296W into GpH7-TA22 was constructed, and expressed and prepared in combination with GpH7-B78 according to the method described in Reference Example 1. Furthermore, GpH7-TA58 (SEQ ID NO: 45) resulting from the introduction of Y296W into GpH7-B78 was constructed, and expressed and prepared in combination with GpH7-TA22 according to the method described in Reference Example 1. To assess the effect of combination with Y296W, the prepared antibodies were compared for the FcγRIIIa-binding activity according to the method described in Reference Example 2 (Table 17).
as §1

[6] = biological target: T2, FcγRIIIa extracellular domain with C-terminal His tag (human, UniProt P08637 17-208); experiment: SPR (Biacore), ratio of KD for FcγRIIIa against GpH7-A5/GpH7-B3/GpL16-k0
T2 construct: extracellular domain; also called FcgRIIIa; 3a; not shown: His tag attached to the C terminus
Source text: Then, the present inventors introduced I332E into only one H chain, and assessed whether the Tm is elevated as compared to when I332E is introduced into both H chains. Expression vectors inserted with GpH7-A44 (SEQ ID NO: 49) and GpH7-B80 (SEQ ID NO: 50) resulting from the introduction of I332E into GpH7-A5 and GpH7-B3, respectively, were constructed. They were combined with GpH7-B3, GpH7-A5, and GpL16-k0 to express and prepare the following antibodies according to the method described in Reference Example 1: the heterodimerized antibodies GpH7-A5/GpH7-B80/GpL16-k0 and GpH7-A44/GpH7-B3/GpL16-k0 in which only one of the H chains was introduced with I332E, and the homodimerized antibody GpH7-A44/GpH7-B80/GpL16-k0 in which both of the H chains were introduced with I332E. […] Each antibody was assessed for the FcγRIIIa-binding activity according to the method described in Reference Example 2. In addition, the antibodies were compared for the Tm of CH2 domain by thermal shift assay according to the method described in Reference Example 5 (Tables 28 and 29).
as §1
T2 sequence (P08637 17-208): as above
The FcγR-binding activity of each antibody was assessed primarily using as an indicator the FcγR-binding activity and dissociation constant for FcγR.

FcγRIIIa [7] = biological target: T1, FcγRIIIa; experiment: ratio of SPR KDs: KD of GpH7-TA7/GpH7-B78/GpL16-k0 divided by KD of this antibody
Source text: First, it was considered which H chain should be introduced with Y296W. GpH7-TA52 (SEQ ID NO: 44) resulting from the introduction of the mutation Y296W into GpH7-TA7 was constructed, and expressed and prepared in combination with GpH7-B78 according to the method described in Reference Example 1. Furthermore, GpH7-TA58 (SEQ ID NO: 45) resulting from the introduction of Y296W into GpH7-B78 was constructed, and expressed and prepared in combination with GpH7-TA22 according to the method described in Reference Example 1. To assess the effects of combinations with Y296W, the prepared antibodies were compared for the FcγRIIIa-binding activity according to the method described in Reference Example 2 (Table 16).
as §1

B1: GpH7-TA4/GpH7-B3-15-02A/GpL16-k0 (antibody, human IgG1, kappa)
heavy 1: QVQLVQSGAEVKKPGASVTVSCKASGYTFTDYEMHWIRQPPGEGLEWIGAIDPKTGDTAYSESFQDRVTLTADKSTSTAYMELSSLTSEDTAVYYCTRFYSYTYWGQGTLVTVSSASTKGPSVFPLAPSSKSTSGGTAALGCLVKDYFPEPVTVSWNSGALTSGVHTFPAVLQSSGLYSLSSVVTVPSSSLGTQTYICNVNHKPSNTKVDKKVEPKSCDKTHTCPPCPAPEYLWGPSVFLFPPKPKDTLMISRTPEVTCVVVDVSHEDPEVKFNWYVDGVEVHNAKTKPREEQYNSTYRVVSVLTVLHQDWLNGKEYKCKVSNKALPAPIEKTISKAKGQPREPQVYTLPPSRKELTKNQVSLTCLVKGFYPSDIAVEWESNGQPENNYKTTPPVLDSDGSFFLYSKLTVDKSRWQQGNVFSCSVMHEALHNRYTQKSLSLSP
heavy 2: not shown
light: DIVMTQSPLSLPVTPGEPASISCQASESLVHSNRNTYLHWYLQKPGQSPQLLIYKVSNRFSGVPDRFSGSGSGTDFTLKISRVEAEDVGVYYCSQNTHVPPTFGQGTKVEIERTVAAPSVFIFPPSDEQLKSGTASVVCLLNNFYPREAKVQWKVDNALQSGNSQESVTEQDSKDSTYSLSSTLTLSKADYEKHKVYACEVTHQGLSSPVTKSFNRGEC
notes: H1 L234Y and G236W; H2 S298A
With B1 the “FcγRIIIa BINDING ACTIVITY” value [1] was 151%.

B2: GpH7-TA6/GpH7-B3-01-15Y/GpL16-k0 (antibody, human IgG1, kappa)
heavy 1: B1 heavy 1 with Y232L, S296A
heavy 2: not shown
light: B1 light
notes: H1 G236W and S298A; H2 L234Y
In the case of B2, the “FcγRIIIa BINDING ACTIVITY” value [1] is reported as 103%.

B3: GpH7-TA5/GpH7-B3-03-20W/GpL16-k0 (antibody, human IgG1, kappa)
heavy 1: B1 heavy 1 with W234G, S296A
heavy 2: not shown
light: B1 light
notes: H1 L234Y and S298A; H2 G236W
B3 was tested, and the “FcγRIIIa BINDING ACTIVITY” value [1] was 97%.

B4: GpH7-A5/GpH7-B78/GpL16-k0 (antibody, human IgG1, kappa)
heavy 1: not shown
heavy 2: B1 heavy 1 with Y232L, W234G, S237D, A328L, I330E, K354D, R433H, K437E
light: B1 light
notes: Anti-glypican-3 IgG1 heterodimer; S239D/A330L/I332E in H2 only
For B4, the “KD ratio 1” value (FcγRIIIa [2]) was 23 fold, the “KD ratio 2” value (FcγRIIIa [3]) was 30 fold and the KD ratio (FcγRIIIa [4]) was 1 fold.

B5: GpH7-TA22/GpH7-TA58/GpL16-k0 (antibody, human IgG1, kappa)
heavy 1: B1 heavy 1 with S237D, S296A
heavy 2: B1 heavy 1 with Y232L, W234G, S237D, Y294W, A328L, I330E, K354D, R433H, K437E
light: B1 light
notes: Anti-glypican-3 IgG1 heterodimer; L234Y/G236W/S239D/S298A in H1, S239D/A330L/I332E/Y296W in H2
In the case of B5, the KD ratio (FcγRIIIa [5]) is reported as 1 fold.

B6: GpH7-A57/GpH7-B78/GpL16-k0 (antibody, human IgG1, kappa)
heavy 1: B1 heavy 1 with Y232L, W234G, S237D, A328L, I330E
heavy 2: B1 heavy 1 with Y232L, W234G, S237D, A328L, I330E, K354D, R433H, K437E
light: B1 light
notes: Anti-glypican-3 IgG1; The two chains differ only in D356K/H435R and K439E
B6 was tested, and the “KD ratio 1” value (FcγRIIIa [2]) was 199 fold, the “KD ratio 2” value (FcγRIIIa [3]) was 263 fold and the KD ratio (FcγRIIIa [4]) was 8.7 fold.

B7: GpH7-TA54/GpH7-B78/GpL16-k0 (antibody, human IgG1, kappa)
heavy 1: B1 heavy 1 with S237D, Y294W, S296A
heavy 2: B1 heavy 1 with Y232L, W234G, S237D, A328L, I330E, K354D, R433H, K437E
light: B1 light
notes: Anti-glypican-3 IgG1 heterodimer; L234Y/G236W/S239D/S298A/Y296W in H1, S239D/A330L/I332E in H2
For B7, the KD ratio (FcγRIIIa [5]) was 1.3 fold.

B8: GpH7-A44/GpH7-B80/GpL16-k0 (antibody, human IgG1, kappa)
heavy 1: B1 heavy 1 with Y232L, W234G, I330E
heavy 2: not shown
light: B1 light
For B8, the KD ratio [6] was 7.1 fold (KD of GpH7-A5/GpH7-B3/GpL16-k0 divided by KD of the antibody).

B9: GpH7-A53/GpH7-B78/GpL16-k0 (antibody, human IgG1, kappa)
heavy 1: B1 heavy 1 with Y232L, W234G, S237D
heavy 2: B1 heavy 1 with Y232L, W234G, S237D, A328L, I330E, K354D, R433H, K437E
light: B1 light
notes: Anti-glypican-3 IgG1 heterodimer; S239D in H1, S239D/A330L/I332E in H2
For B9, the KD ratio (FcγRIIIa [4]) was 4.9 fold.

B10: GpH7-TA52/GpH7-B78/GpL16-k0 (antibody, human IgG1, kappa)
heavy 1: B1 heavy 1 with Y294W, S296A
heavy 2: B1 heavy 1 with Y232L, W234G, S237D, A328L, I330E, K354D, R433H, K437E
light: B1 light
notes: Anti-glypican-3 IgG1 heterodimer; L234Y/G236W/S298A/Y296W in H1, S239D/A330L/I332E in H2
Work on B10 yielded a KD ratio (FcγRIIIa [7]) of 1.8 fold.

B11: GpH7-TA7/GpH7-TA58/GpL16-k0 (antibody, human IgG1, kappa)
heavy 1: B1 heavy 1 with S296A
heavy 2: B1 heavy 1 with Y232L, W234G, S237D, Y294W, A328L, I330E, K354D, R433H, K437E
light: B1 light
notes: Anti-glypican-3 IgG1 heterodimer; L234Y/G236W/S298A in H1, S239D/A330L/I332E/Y296W in H2
B11 showed a KD ratio (FcγRIIIa [7]) of 1.2 fold.
